Measured values reported in patent US20240166745A1 (Eli Lilly, published 2024).

Experiments:
Human LAG-3 ECD-His = biological target: T1, Human LAG-3 ECD-His (human, UniProt P18627 23-449); assay: SPR (Biacore T200), antibody captured on PrismA chip, ECD as analyte, 37° C., steady-state equilibrium model (SS); 37° C., steady-state equilibrium model
T1 construct: Soluble analyte in SPR; the entry includes linker and His tag; also called human LAG-3-His
T1 sequence: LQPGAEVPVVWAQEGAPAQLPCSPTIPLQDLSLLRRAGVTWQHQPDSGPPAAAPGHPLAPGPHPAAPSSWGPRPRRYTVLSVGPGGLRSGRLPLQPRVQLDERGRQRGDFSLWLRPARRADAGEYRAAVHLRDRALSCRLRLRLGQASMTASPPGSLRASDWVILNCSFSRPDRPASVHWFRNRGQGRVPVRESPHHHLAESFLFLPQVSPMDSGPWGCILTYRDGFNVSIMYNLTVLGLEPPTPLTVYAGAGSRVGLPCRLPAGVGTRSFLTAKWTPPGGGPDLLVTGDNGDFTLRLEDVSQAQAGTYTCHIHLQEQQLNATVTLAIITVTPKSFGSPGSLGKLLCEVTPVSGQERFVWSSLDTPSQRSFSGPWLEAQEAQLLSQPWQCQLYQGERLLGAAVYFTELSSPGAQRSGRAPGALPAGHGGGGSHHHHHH

Cynomolgus PD-1-ECD = biological target: T2, Cynomolgus PD-1-ECD (cynomolgus, UniProt B0LAJ3 25-170); assay: SPR (Biacore T200), antibody captured on PrismA chip, ECD as analyte; temperature unclear: the 37° C. label is printed only at r14, by the order of Table 3a probably 37° C.
T2 construct: commercial protein; also called cynomolgus PD-1-ECD (Sino Biologicals, Cat #90311-C08H); not shown: C-terminal polyhistidine tag of the vendor product (Sino Biological 90311-C08H)
Method: A Biacore® T200 (Cytiva, Marlborough, MA) was used to measure the binding kinetics and affinities of the LAG-3 antibody to the LAG-3 soluble extracellular domain (ECD) and the bispecific antibody to soluble LAG-3-ECD and PD-1-ECD (human: Sino Biologicals, Cat #10377-H08H; cynomolgus: Sino Biologicals, Cat #90311-C08H) by surface plasmon resonance. Samples were diluted in HBS-EP+ (10 mM Hepes, 150 mM NaCl, 3 mM EDTA, 0.05% Tween-20, pH 7.6) (Teknova Cat #H8022) with 5 g/L of BSA (Jackson ImmunoResearch Cat #001-000-161) running buffer. PrismA Series S Sensor chip (Cat #29650263) is purchased from Cytiva.
Binding was evaluated using multi-cycle kinetics by an antibody capture method. Each cycle was performed at either 37° C. or 25° C. at a flow rate of 10 μL/min for antibody capture to the PrismA chip and 100 μL/min for analyte association (with 120 sec contact time) and dissociation (900 sec). Each cycle consisted of the following steps: injection of bispecific antibody at 1 μg/mL in HBS-EP+ targeting Rmax values of 125 RU (LAG-3 arm), 294 RU (PD-1 arm) and 63 RU (LAG-3 antibody) on flow cell, injection of analyte in HBS-EP+(concentration range of 62.5 nM to 0.25 nM by two-fold serial dilution for both human PD-1-ECD-His (SEQ ID NO: 40) and human LAG-3-His (SEQ ID NO: 42) followed by 900-second dissociation phase, and regeneration using 10 μL of 10 mM glycine hydrochloride, pH 1.5 over a 60-second contact time utilizing a 10 μL/min flow rate. All analyte concentrations were determined utilizing monomeric molecular weight (MW) values. Association rates (kₒₙ) and dissociation rates (koff) for LAG-3-ECD and PD-1-ECD were evaluated using double referencing by flow-cell one reference subtraction in addition to 0 nM blank subtraction and fit to “1:1 (Langmuir) binding” model in the BIAevaluation software version 4.1. The dissociation constant (KD) was calculated from the binding kinetics according to the relationship KD=Koff/Kₒₙ. Stoichiometry=[RUₘₐₓ/RUcaptured]/[MWanalyte/MWantibody] where MWAntibodyA is 150 kDa. Values are reported as mean±standard deviation.

T2 sequence (B0LAJ3 entry or part of it limits assumed): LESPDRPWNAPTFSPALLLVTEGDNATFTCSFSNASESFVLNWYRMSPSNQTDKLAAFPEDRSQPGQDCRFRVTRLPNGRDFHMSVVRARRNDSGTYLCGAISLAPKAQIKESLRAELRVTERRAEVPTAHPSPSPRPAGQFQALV

Binder	Kd (Human LAG-3 ECD-His)	Kd (Cynomolgus PD-1-ECD)	koff (Cynomolgus PD-1-ECD)	kon (Cynomolgus PD-1-ECD)
Antibody A (bispecific antibody, human IgG1, kappa, lambda, IgG-like bispecific with one LAG-3 arm and one PD-1 arm; also called human LAG-3/human PD-1 dual agonist bispecific antibody) heavy 1: not shown light 1: DIVMTQTPLSLPVTPGEPASISCRSSQSLLDSAEGSTYLDWFLRKPGDSPQLLIYTLSYRASGVPDRFSGSGSGTDFTLKISRVEAEDVGVYYCMQRVEFPYTFGQGTKVEIKRTVAAPSVFIFPPSKEQLKSGTASVVCLLNNFYPREAKVQWKVDNALQSGNSQESVTEQDSKDSTYSLSSTLTLSKADYEKHKVYACEVTHQGLSSPVTKSFNRGEC heavy 2: QVQLVQSGAEVKKPGASVKVSCKVSGYSLSKYDMSWVRKAPGKGLEWMGIIYTSGYTDYAQEFQGRVTMTEDTSTDTAYMELSSLRSEDTAVYYCATGNPYYTNGFNSWGQGTLVTVSSASTKGPSVFPLAPSSKSTSGGTAALGCLVKDYFPEPVTVSWNSGALTSGVATGPAVLQSSGLYSLSSVVTVPSSSLGTQTYICNVNHKPSNTKVDKRVEPKSCDKTHTCPPCPAPELLGGPSVFLFPPKPKDTLMISRTPEVTCVVVDVSHEDPEVKFNWYVDGVEVHNAKTKPREEQYNSTYRVVSVLTVLHQDWLNGKEYKCKVSNKALPAPIEKTISKAKGQPREPQVYTLPPSREEMTDNQVSLTCLVKGFYPSDIAVEWESNGQPENNYKTTPPVLMSDGSFFLASKLTVDKSRWQQGNVFSCSVMHEALHNHYTQKSLSLSPGK light 2: RIQMTQSPSSLSASVGDRVTITCQASQSPNNLLAWYQDKPGKAPKLLIYGASDLPSGVPSRFSGSGSGTDFTLTISSLQPEDFATYYCQNNYYVGPVSYAFGGGTKVEIKGQPKAAPSVTLFPPSSEELQANKATLVCYISDFYPGAVTVAWKADSSPVKAGVETTTPSKQSNNKYAAWSYLSLTPEQWKSHRSYSCQVTHEGSTVEKTVAPTEC	5.7 nM			
Antibody B (bispecific antibody, human IgG1, kappa, lambda, also called human LAG-3/human PD-1 dual agonist bispecific antibody) heavy 1: not shown light 1: DIVMTQTPLSLPVTPGEPASISCRSSQSLLDSAEGSTYLDWFLRKPGDSPQLLIYTLSYRASGVPDRFSGSGSGTDFTLKISRVEAEDVGVYYCMQRVEFPYTFGQGTKVEIKRTVAAPSVFIFPPSKEQLKSGTASVVCLLNNFYPREAKVQWKVDNALQSGNSQESVTEQDSKDSTYSLSSTLTLSKADYEKHKVYACEVTHQGLSSPVTKSFNRGEC heavy 2: QVQLVQSGAEVKKPGASVKVSCKVSGYSLSKYDMSWVRKAPGKGLEWMGIIYTSGYTDYAQEFQGRVTMTEDTSTDTAYMELSSLRSEDTAVYYCATGNPYYTNGFNSWGQGTLVTVSSASTKGPSVFPLAPSSKSTSGGTAALGCLVKDYFPEPVTVSWNSGALTSGVATGPAVLQSSGLYSLSSVVTVPSSSLGTQTYICNVNHKPSNTKVDKRVEPKSCDKTHTCPPCPAPELLGGPSVFLFPPKPKDTLMISRTPEVTCVVVDVSHEDPEVKFNWYVDGVEVHNAKTKPREEQYNSTYRVVSVLTVLHQDWLNGKEYKCAVSNKALPAPIEKTISKAKGQPREPQVYTLPPSREEMTDNQVSLTCLVKGFYPSDIAVEWESNGQPENNYKTTPPVLMSDGSFFLASKLTVDKSRWQQGNVFSCSVMHEALHNHYTQKSLSLSPGK light 2: RIQMTQSPSSLSASVGDRVTITCQASQSPNNLLAWYQDKPGKAPKLLIYGASDLPSGVPSRFSGSGSGTDFTLTISSLQPEDFATYYCQNNYYVGPVSYAFGGGTKVEIKGQPKAAPSVTLFPPSSEELQANKATLVCYISDFYPGAVTVAWKADSSPVKAGVETTTPSKQSNNKYAAWSYLSLTPEQWKSHRSYSCQVTHEGSTVEKTVAPTEC		3.1 nM	0.0088 s⁻¹	2.8e+06 M⁻¹ s⁻¹
